According to FireProtDB (doi:10.1093/protein/12.7.581):
“And” between values parts separate entries of the source, which are not always exact repeats. Identical values can stand only once.

Settings: Bos taurus; pH 7.4; Thermal; CD; Tris-HCl 20 mM; CaCl2 1 mM; reversible: yes(>95%); whole UniProt chain shown

B1: Alpha-lactalbumin wild type, P00711 (protein)
chain: MMSFVSLLLVGILFHATQAEQLTKCEVFRELKDLKGYGGVSLPEWVCTTFHTSGYDTQAIVQNNDSTEYGLFQINNKIWCKDDQNPHSSNICNISCDKFLDDDLTDDIMCVKKILDKVGINYWLAHKALCSEKLDQWLCEKL
  unfolding enthalpy (van 't Hoff): 64.5 kcal/mol and 73.8 kcal/mol and 73.4 kcal/mol
